For 61 molecules, peptide exchange yield results are on record in patent publication US20230212244A1 (IMMATICS BIOTECHNOLOGIES, published 2023).

To fix the notation:
B1: peptide ALLNAILHSA (SEQ ID NO: 132) (peptide)
peptide: ALLNAILHSA
B2: peptide ALSDETWGL (SEQ ID NO: 146) (peptide)
peptide: ALSDETWGL
B3: peptide TLTELRAFL (SEQ ID NO: 147) (peptide)
peptide: TLTELRAFL
B4: peptide ALLGGGPYML (SEQ ID NO: 107) (peptide)
peptide: ALLGGGPYML
B5: peptide TLAKYLMEL (SEQ ID NO: 126) (peptide)
peptide: TLAKYLMEL
B6: peptide KLLAVIHEL (SEQ ID NO: 152) (peptide)
peptide: KLLAVIHEL
notes: also called RAD54B-002
B7: peptide KTLERSYLL (SEQ ID NO: 123) (peptide)
peptide: KTLERSYLL
B8: peptide SLAPNIISQL (SEQ ID NO: 121) (peptide)
peptide: SLAPNIISQL
B9: peptide ALIKQLFEA (SEQ ID NO: 1) (peptide)
peptide: ALIKQLFEA
notes: also called ZNF-002
B10: peptide … (SEQ ID NO: 155) (peptide)
peptide: RLLGEEVVRV
notes: also called RLLGEEVVRV
B11: peptide SLAELVPGVGGI (SEQ ID NO: 108) (peptide)
peptide: SLAELVPGVGGI
B12: peptide YALDLSTFL (SEQ ID NO: 105) (peptide)
peptide: YALDLSTFL
B13: peptide KQFEGTVEI (SEQ ID NO: 138) (peptide)
peptide: KQFEGTVEI
B14: peptide LLNDRIWLA (SEQ ID NO: 144) (peptide)
peptide: LLNDRIWLA
B15: peptide KLLDWHPA (SEQ ID NO: 131) (peptide)
peptide: KLLDVVHPA
B16: peptide SLMGMVLKL (SEQ ID NO: 122) (peptide)
peptide: SLMGMVLKL
B17: peptide GLLDPSVFHV (SEQ ID NO: 158) (peptide)
peptide: GLLDPSVFHV
B18: peptide ALDGDQMEL (SEQ ID NO: 109) (peptide)
peptide: ALDGDQMEL
B19: peptide YQFDKVGILTL (SEQ ID NO: 149) (peptide)
peptide: YQFDKVGILTL
B20: peptide GLGGSQLIDTHL (SEQ ID NO: 130) (peptide)
peptide: GLGGSQLIDTHL
B21: peptide RTFEKIEEV (SEQ ID NO: 133) (peptide)
peptide: RTFEKIEEV
B22: peptide MLDDRAYLV (SEQ ID NO: 128) (peptide)
peptide: MLDDRAYLV
B23: peptide YLFEKTFNM (SEQ ID NO: 11) (peptide)
peptide: YLFEKTFNM
B24: peptide SAQGSDVSLTACKV (SEQ ID NO: 151) (peptide)
peptide: SAQGSDVSLTACKV
B25: peptide LQLDKEFQL (SEQ ID NO: 15) (peptide)
peptide: LQLDKEFQL
B26: peptide LLADLKTMV (SEQ ID NO: 118) (peptide)
peptide: LLADLKTMV
B27: peptide VLLNEILEQV (SEQ ID NO: 139) (peptide)
peptide: VLLNEILEQV
B28: peptide … (SEQ ID NO: 148) (peptide)
peptide: RLLENMTEVV
B29: peptide KLFDIFSQQV (SEQ ID NO: 136) (peptide)
peptide: KLFDIFSQQV
B30: peptide AVIEHLERL (SEQ ID NO: 141) (peptide)
peptide: AVIEHLERL
B31: peptide RLAELTVDEFLA (SEQ ID NO: 127) (peptide)
peptide: RLAELTVDEFLA
B32: peptide LLLEWKQV (SEQ ID NO: 145) (peptide)
peptide: LLLEVVKQV
notes: also called LLLEVVKQV
B33: peptide ILYQTVTGL (SEQ ID NO: 119) (peptide)
peptide: ILYQTVTGL
B34: peptide FLDKPEDVLL (SEQ ID NO: 14) (peptide)
peptide: FLDKPEDVLL
B35: peptide KLGDFGLLVEL (SEQ ID NO: 125) (peptide)
peptide: KLGDFGLLVEL
B36: peptide LLNEILEQV (SEQ ID NO: 140) (peptide)
peptide: LLNEILEQV
B37: peptide SLISEKILL (SEQ ID NO: 106) (peptide)
peptide: SLISEKILL
B38: peptide LLGELPRLLLL (SEQ ID NO: 110) (peptide)
peptide: LLGELPRLLLL
B39: peptide RLADLEALKV (SEQ ID NO: 150) (peptide)
peptide: RLADLEALKV
B40: peptide FLLAEDTKV (SEQ ID NO: 13) (peptide)
peptide: FLLAEDTKV
B41: peptide QLTEIKPLL (SEQ ID NO: 137) (peptide)
peptide: QLTEIKPLL
B42: peptide VLIDVLKEL (SEQ ID NO: 129) (peptide)
peptide: VLIDVLKEL
B43: peptide TAVGHALVL (SEQ ID NO: 114) (peptide)
peptide: TAVGHALVL
B44: peptide SLIERDLKL (SEQ ID NO: 157) (peptide)
peptide: SLIERDLKL
B45: peptide TLQPVDNSTISL (SEQ ID NO: 117) (peptide)
peptide: TLQPVDNSTISL
B46: peptide SLFDVSHML (SEQ ID NO: 115) (peptide)
peptide: SLFDVSHML
B47: peptide SLVQRVETI (SEQ ID NO: 142) (peptide)
peptide: SLVQRVETI
notes: also called ECT2-001
B48: peptide ILYDLQQNL (SEQ ID NO: 113) (peptide)
peptide: ILYDLQQNL
B49: peptide LVYQFVHPI (SEQ ID NO: 116) (peptide)
peptide: LVYQFVHPI
B50: peptide KLSDVWKEL (SEQ ID NO: 143) (peptide)
peptide: KLSDVWKEL
B51: peptide ALVQGILERV (SEQ ID NO: 12) (peptide)
peptide: ALVQGILERV
B52: peptide VLYEGVDEV (SEQ ID NO: 120) (peptide)
peptide: VLYEGVDEV
B53: peptide KLQEEIPVL (SEQ ID NO: 135) (peptide)
peptide: KLQEEIPVL
B54: peptide SLMMTIINL (SEQ ID NO: 156) (peptide)
peptide: SLMMTIINL
B55: peptide ILLTIKDDTIYL (SEQ ID NO: 104) (peptide)
peptide: ILLTIKDDTIYL
B56: peptide GVAGGSILKGV (SEQ ID NO: 134) (peptide)
peptide: GVAGGSILKGV
B57: peptide KLGQVLIYL (SEQ ID NO: 112) (peptide)
peptide: KLGQVLIYL
B58: peptide RMYNKIFAI (SEQ ID NO: 10) (peptide)
peptide: RMYNKIFAI
B59: peptide RVLPPSALQSV (SEQ ID NO: 124) (peptide)
peptide: RVLPPSALQSV
B60: peptide ILFSEDSTKLFV (SEQ ID NO: 153) (peptide)
peptide: ILFSEDSTKLFV
B61: peptide KLPSETIFVGC (SEQ ID NO: 154) (peptide)
peptide: KLPSETIFVGC

Some results are limits rather than exact numbers.

This experiment concerns the target T1, HLA-A*02:01 (human).
T1 construct: MHC class I monomer made peptide-receptive by UV cleavage of a UV-sensitive ligand; also called peptide-receptive MHC molecules
Briefly: UV-ligand exchange ELISA (anti-β2m), peptide exchange yield grade. The text has this:
Candidate peptides for T cell based therapies according to the present invention were further tested for their MHC binding capacity (affinity). The individual peptide-MHC complexes were produced by UV-ligand exchange, where a UV-sensitive peptide is cleaved upon UV-irradiation, and exchanged with the peptide of interest as analyzed. Only peptide candidates that can effectively bind and stabilize the peptide-receptive MHC molecules prevent dissociation of the MHC complexes. To determine the yield of the exchange reaction, an ELISA was performed based on the detection of the light chain (β2m) of stabilized MHC complexes. The assay was performed as generally described in Rodenko et al. (Rodenko et al., 2006).
96 well MAXISorp plates (NUNC) were coated over night with 2ug/ml streptavidin in PBS at room temperature, washed 4× and blocked for1h at 37° C. in 2% BSA containing blocking buffer. Refolded HLA-A*02:01/MLA-001 monomers served as standards, covering the range of 15-500 ng/ml. Peptide-MHC monomers of the UV-exchange reaction were diluted 100 fold in blocking buffer. Samples were incubated for 1h at 37° C., washed four times, incubated with 2 ug/ml HRP conjugated anti-β2m for 1h at 37° C., washed again and detected with TMB solution that is stopped with […]. Absorption was measured at 450 nm. Candidate peptides that show a high exchange yield (preferably higher than 50%, most preferred higher than 75 %) are generally preferred for a generation and production of antibodies or fragments thereof, and/or T cell receptors or fragments thereof, as they show sufficient avidity to the MHC molecules and prevent dissociation of the MHC complexes.
On the technique in general: ELISA stands for enzyme-linked immunosorbent assay.
Regarding B1, the peptide exchange yield lay in the range of 50 to 75%.

With B2, the peptide exchange yield lay within 20 to 50%.

B3 yielded a peptide exchange yield of at least 75%.

In turn, B4 returned a peptide exchange yield of 50 to 75%.

On to B5, for which the peptide exchange yield is 50 to 75%.

With B6, the peptide exchange yield lay in the range of 20 to 50%.

As to B7, the peptide exchange yield fell in the range of 20 to 50%.

B8: the peptide exchange yield was in the range of 50 to 75%.

Turning to B9, the peptide exchange yield was 50 to 75%.

B10 registered a peptide exchange yield of 50 to 75%.

On to B11, for which the peptide exchange yield was in the range of 50 to 75%.

Turning to B12, the peptide exchange yield was in the range of 50 to 75%.

B13 displayed a peptide exchange yield of 50 to 75%.

For the molecule B14, the peptide exchange yield is 50 to 75%.

The molecule B15 yielded a peptide exchange yield of 20 to 50%.

With B16, the peptide exchange yield lay within 50 to 75%.

With B17, the peptide exchange yield was in the range of 50 to 75%.

With B18, the peptide exchange yield was 20 to 50%.

For B19, the peptide exchange yield lay in the range of 50 to 75%.

Molecule B20 displayed a peptide exchange yield of 20 to 50%.

Turning to B21, the peptide exchange yield fell in the range of 20 to 50%.

With B22, the peptide exchange yield was in the range of 20 to 50%.

Turning to B23, the peptide exchange yield was in the range of 50 to 75%.

As to B24, the peptide exchange yield was in the range of 50 to 75%.

Regarding B25, the peptide exchange yield lay in the range of 50 to 75%.

With B26, the peptide exchange yield lay within 50 to 75%.

B27: the peptide exchange yield lay in the range of 50 to 75%.

On to B28, for which the peptide exchange yield is 50 to 75%.

B29 displayed a peptide exchange yield of 50 to 75%.

B30: the peptide exchange yield was at least 75%.

On to B31, for which the peptide exchange yield fell in the range of 50 to 75%.

Consider B32, for which the peptide exchange yield is 50 to 75%.

In turn, B33 returned a peptide exchange yield of 20 to 50%.

Molecule B34 had a peptide exchange yield of 20 to 50%.

Consider B35, for which the peptide exchange yield is at least 75%.

For the molecule B36, the peptide exchange yield lay within 50 to 75%.

Consider B37, for which the peptide exchange yield lay within 50 to 75%.

Consider B38, for which the peptide exchange yield lay within 50 to 75%.

B39: the peptide exchange yield is 50 to 75%.

The molecule B40 had a peptide exchange yield of 50 to 75%.

Molecule B41 showed a peptide exchange yield of 50 to 75%.

Molecule B42 showed a peptide exchange yield of 50 to 75%.

With B43, the peptide exchange yield lay within 10 to 20%.

Molecule B44 returned a peptide exchange yield of 50 to 75%.

B45: the peptide exchange yield lay within 20 to 50%.

B46 came in with a peptide exchange yield of 50 to 75%.

For B47, the peptide exchange yield lay within 50 to 75%.

Molecule B48 came in with a peptide exchange yield of 20 to 50%.

Molecule B49 gave a peptide exchange yield of 20 to 50%.

Regarding B50, the peptide exchange yield was 50 to 75%.

Molecule B51 gave a peptide exchange yield of 50 to 75%.

For the molecule B52, the peptide exchange yield is 20 to 50%.

B53 came in with a peptide exchange yield of 20 to 50%.

Molecule B54 registered a peptide exchange yield of at least 75%.

B55 had a peptide exchange yield of 50 to 75%.

With B56, the peptide exchange yield is at least 75%.

Consider B57, for which the peptide exchange yield is 20 to 50%.

Turning to B58, the peptide exchange yield was in the range of 50 to 75%.

Turning to B59, the peptide exchange yield fell in the range of 50 to 75%.

On to B60, for which the peptide exchange yield fell in the range of 50 to 75%.

Turning to B61, the peptide exchange yield was 50 to 75%.
